Changes are numbered by the printed parent chain. One block for each molecule: values may come before it.
Experiments:
Format in all cases: biochemical, Z. mays
[1] = system: 4-hydroxyphenylpyruvate dioxygenase (HPPD); experiment: OFF rate ratio: release of inhibitor from pre-formed enzyme-inhibitor complex; details: for OFF rate ratio: Table 7, tembotrione, combinatorial variants; for Insensitivity, isoxaflutole (DKN), Rate ratio OFF: inhibitor diketonitrile form of isoxaflutole (DKN); for Insensitivity, mesotrione, Rate ratio OFF: inhibitor mesotrione; for Insensitivity, sulcotrione, Rate ratio OFF: inhibitor sulcotrione; for Insensitivity, tembotrione, Rate ratio OFF: inhibitor tembotrione; for Insensitivity, topramezone, Rate ratio OFF: inhibitor topramezone
In short: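 HPPD (7.2 μM) pre-incubated 1 h at RT with inhibitor (8 μM), then diluted into 25 mM Hepes pH 7, 2 mM ascorbate, 10 μM FeSO4, 100 μM HPP, 50 nM HGD; A320 followed 12 min. Ratio = steady-state rate with inhibitor over initial rate of inhibitor-free enzyme.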

[2] = system: 4-hydroxyphenylpyruvate dioxygenase (HPPD); experiment: HPPD activity coupled assay with HGD; substrate saturation kinetic parameters (kcat, KM); details: substrate saturation kinetic analysis
In short: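 Coupled continuous assay: His-tagged HPPD (5 to 240 nM, E. coli-expressed, Ni-NTA-purified) with 50 nM P. aeruginosa HGD in 25 mM Hepes pH 7, 2 mM ascorbate, 10 μM FeSO4; maleylacetoacetate followed at 320 nm. KM and Vmax from Lineweaver-Burke fits over 3.33–100 μM HPP.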

[3] = system: 4-hydroxyphenylpyruvate dioxygenase (HPPD); experiment: Insensitivity parameter (ON × OFF) and trait fitness (ON × OFF × kcat/KM or × kcat); design: key to ON × OFF / Insensitivity, mesotrione, ON × OFF / Insensitivity, tembotrione, ON × OFF / Insensitivity, topramezone, ON × OFF / Insensitivity, sulcotrione, ON × OFF / Insensitivity, isoxaflutole (DKN), ON × OFF: insensitivity = ON rate ratio × OFF rate ratio (surrogate for KD); details: for Insensitivity, isoxaflutole (DKN), ON × OFF / Insensitivity, isoxaflutole (DKN), Trait fitness: inhibitor diketonitrile form of isoxaflutole (DKN); for Insensitivity, mesotrione, ON × OFF / Insensitivity, mesotrione, Trait Fitness: inhibitor mesotrione; for Insensitivity, sulcotrione, ON × OFF / Insensitivity, sulcotrione, Trait fitness: inhibitor sulcotrione; for Insensitivity, tembotrione, ON × OFF / Insensitivity, tembotrione, Trait fitness: inhibitor tembotrione; for Insensitivity, topramezone, ON × OFF / Insensitivity, topramezone, Trait Fitness: inhibitor topramezone
In short: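 Calculated, not measured directly: ON rate ratio × OFF rate ratio gives an insensitivity parameter serving as a KD surrogate.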

[4] = Table 7, tembotrione, combinatorial variants

OFF rate ratio [1]: 0.273
Insensitivity, isoxaflutole (DKN), Rate ratio OFF [1]: 0.39
Insensitivity, mesotrione, Rate ratio OFF [1]: 1.00
Insensitivity, sulcotrione, Rate ratio OFF [1]: 1.13
Insensitivity, tembotrione, Rate ratio OFF [1]: 0.33
Insensitivity, topramezone, Rate ratio OFF [1]: 0.57
ON × OFF ([3]; Megatable 3, shuffled variants): 0.208
ON × OFF [3, 4]: 0.208
Insensitivity, isoxaflutole (DKN), ON × OFF [3]: 0.17
Insensitivity, isoxaflutole (DKN), Trait fitness [3]: 3.40
Insensitivity, mesotrione, ON × OFF [3]: 0.72
Insensitivity, mesotrione, Trait Fitness [3]: 14.0
Insensitivity, sulcotrione, ON × OFF [3]: 0.50
Insensitivity, sulcotrione, Trait fitness [3]: 9.69
Insensitivity, tembotrione, ON × OFF [3]: 0.27
Insensitivity, tembotrione, Trait fitness [3]: 5.25
Insensitivity, topramezone, ON × OFF [3]: 0.26
Insensitivity, topramezone, Trait Fitness [3]: 5.04
B1: 9070Q366E (protein)
chain: MGPTPTATAAGAAVAAASAAEQAAFRLVGHRNFVRFNPRSDRFQTLAFHHVELWCADAASAAGRFSFALGVPLAARSDLSTGNSAHASLLLRSGSLSLLFTAPYAHGADAATAALPSFSAAAARRFAADHGLAVRAVALRVADAEDAFRASVAAGARPAFGPVDLGRGFRLAEVELYGDVVLRYVSYPDGAAGEPFLPGFEGVASPGAADYGLSRFDHIVGNVPELAPAAAYMAGFTGFHEFAEFTTEDVGTTESGLNSMALANNSENVLLPLNEPVHGTKRRSQIQTFLDHHGGPGVQHIALASDDVLRTLREMRARSAMGGFEFLPPPLSDYYDGVRRCAGDVLTEAQINECQELGVMVDRDDEGVLLQIFTKPVGDRPTFFLEIIQRIGCMEKDEKGQEYQKGGCGGFGKGNFGQLFKSIEDYEKSLEAKQAAAAATAQGS
modifications: Zea mays variant form created by artificial means.
Km [2]: 1570 nM
kcat [2]: 30.8 min⁻¹
ON × OFF × kcat ([3]; Megatable 3, shuffled variants): 4.18
ON × OFF × kcat [3, 4]: 4.18

OFF rate ratio [1]: 0.249
Insensitivity, isoxaflutole (DKN), Rate ratio OFF [1]: 0.44
Insensitivity, mesotrione, Rate ratio OFF [1]: 1.00
Insensitivity, sulcotrione, Rate ratio OFF [1]: 1.22
Insensitivity, tembotrione, Rate ratio OFF [1]: 0.43
Insensitivity, topramezone, Rate ratio OFF [1]: 0.60
ON × OFF ([3]; Megatable 3, shuffled variants): 0.173
ON × OFF [3, 4]: 0.173
Insensitivity, isoxaflutole (DKN), ON × OFF [3]: 0.36
Insensitivity, isoxaflutole (DKN), Trait fitness [3]: 10.45
Insensitivity, mesotrione, ON × OFF [3]: 0.67
Insensitivity, mesotrione, Trait Fitness [3]: 19.6
Insensitivity, sulcotrione, ON × OFF [3]: 0.97
Insensitivity, sulcotrione, Trait fitness [3]: 28.4
Insensitivity, tembotrione, ON × OFF [3]: 0.36
Insensitivity, tembotrione, Trait fitness [3]: 10.43
Insensitivity, topramezone, ON × OFF [3]: 0.51
Insensitivity, topramezone, Trait Fitness [3]: 14.86
B2: P056028-A-01 (protein)
chain: B1 chain with Q434R
modifications: Zea mays variant form created by artificial means.
Km [2]: 2490 nM
kcat [2]: 72.4 min⁻¹
ON × OFF × kcat ([3]; Megatable 3, shuffled variants): 6.78
ON × OFF × kcat [3, 4]: 6.78

Source: patent US11015206B2, “Compositions and methods comprising sequences having hydroxyphenylpyruvate dioxygenase (HPPD) activity” (PIONEER HI-BRED INTERNATIONAL, INC., priority 2014, dated 2021)
